Entries after “also recorded” stand apart in the source; their conditions may differ.
System: C8161 melanoma cells
Test: Western blot analysis of C8161 melanoma cells treated with anti-Nodal antibody
Assay type: cell-based, human
Details: for phosphorylation of Smad2 and MAPK (ERK1/2): 1 hr to 72 hr
Protocol: Experiments were conducted in order to assess and characterize the ability of the 3D1 antibody to inhibit Nodal activity. 3D1 reduced Nodal expression, clonogenicity, and vasculogenic mimicry in metastatic melanoma cells (See FIG. 24). C8161 melanoma cells treated with an IgG-Control (negative control) or 4 μg/ml of either Santa Cruz (SC) (used as positive control) or 3D1 function blocking anti-Nodal antibodies for 72 hours.
Additional studies were performed in order to determine if 3D1 antibody could alter phosphorylation of Smad2 or MAPK. […] Western blot analysis of C8161 melanoma cells treated with 3D1 (4 μg/ml) vs. untreated control for 1 hr, 2 hr, 4 hr, 6 hr or 72 hr (See FIG. 25).
To determine the level of Nodal expression in brain, kidney, liver, pancreas, heart and skeletal muscle ready to use adult tissue extracts for Western blotting (WB) were purchased from Santa Cruz Biotechnology. For WB experiments of cell lines, whole cell lysates were prepared and quantified. SDS-PAGE gel electrophoresis and WB were performed using standard techniques. PVDF membranes were blocked in 5% non-fat milk or 5% BSA and antibodies diluted in either 5% non-fat milk or 5% bovine serum albumin overnight at 4° C., depending on the manufacturer's recommendations. Signal was detected using West Pico chemiluminescence reagent (Thermo Fisher) and exposure to x-ray film.

B1: 3D1: mouse monoclonal anti-Nodal antibody raised against hNodal(44-67); light chain SEQ ID NO:1, heavy chains SEQ ID NO:2 and 3 (protein)
light: DIKMTQSPASLSASVGETVTITCRASGNIHNYLAWYQQKQGKSPQLLVYNAKTLADGVPSRFSGSGSGTQYSLKINSLQPEDFGSYYCQHFWSTPHVRCWDQAGTETEAW
heavy 1: VKLVESGGGLVKPGGSLKLSCAASGFTFSSYAMSWVRQTPEKRLEWVASISSGGCTYYPDSVKGRFTISRDNARNILYLQMSSLRSEDTAMYYCARGSMITADGNSLLLCYGLLGSRNLXHR
heavy 2: VKLVESGGGLVQPGGSMKLSCVASGFTFRNYWMSWVRQSPEKGLEWVAEIRLKSDNYAARYAESVKGKFTISRDDSKSRLYLQMNSLRAEDTGIYYCTGIRRFAYWGQGTL
modifications: not fully specified; (120)..(120) Xaa can be any naturally occurring amino acid
inhibition of Nodal protein expression (4 μg/ml, 72 hours, Western blot vs IgG control): 50%
phosphorylation of Smad2 and MAPK (ERK1/2) (4 μg/ml): reduced phosphorylation of Smad2 and MAPK
phosphorylation of Smad2 and MAPK (ERK1/2) (4 μg/ml, listed as 3D1 mAb): reduction in phosphorylation; also recorded: reduced
p27 level (72 hr): increases
phospho-Histone H3 (P-H3) level (72 hr): increases
Nodal expression (72 hr, 4 μg/ml, vs IgG control, listed as 3D1 mAb): reduction in Nodal expression
Cyclin B1 level (72 hr, listed as 3D1 mAb): reduced; also recorded: reduction
p27 level (72 hr, listed as 3D1 mAb): increase
phospho-Histone H3 (P-H3) level (72 hr, listed as 3D1 mAb): reduction
